Substrate in data set [1]: O=CC(=O)O
The data set can be described thus: purified protein. The format is biochemical, Vitis vinifera. As to conditions: 1 mM NADPH, 100 mM HEPES pH 7.5, 37 °C.

Substrate in data set [2]: O=C(O)C(=O)CO
Nature of the data set: purified protein. The following applies: 1 mM NADPH, 100 mM HEPES pH 7.5, 37 °C. The format is biochemical, Vitis vinifera.

Substrate in data set [3]: O=C(O)C(=O)[C@@H](O)[C@H](O)[C@@H](O)CO
Nature of the data set: purified protein. The format is biochemical, Vitis vinifera. The following applies: 1 mM NADPH, 100 mM HEPES pH 7.5, 37 °C.

Substrate in data set [4]: CC(=O)C(=O)O
Nature of the data set: purified protein. Type of data set: biochemical, Vitis vinifera. The following applies: 1 mM NADPH, 100 mM HEPES pH 7.5, 37 °C.

Data set [5] concerns the molecule itself. Nature of the data set: crystal structure; ligand-free Vv2KGR, space group P2(1), four subunits (chains A-D) in the asymmetric unit, 1.58 Å; crystals from 1.26 M ammonium sulfate, 100 mM sodium acetate/acetic acid pH 4.5, 200 mM NaCl, 16 °C; oligomeric interface analysed with PDBePISA.

The results in this text go back to paper PMC6827314, “An aldo-keto reductase with 2-keto-L-gulonate reductase activity functions in L-tartaric acid biosynthesis from vitamin C in Vitis vinifera” (The Journal of Biological Chemistry, 2019).

A word on the Km: it is the concentration of substrate that gives half-maximal velocity. As usually defined, the Vmax is the top rate of the reaction or transport when substrate is in excess. For orientation: kcat means the number of substrate molecules converted per active site and unit of time at saturation. The stoichiometry N is the number of molecules, sites or subunits per partner or assembly.

B1: Vitis vinifera 2-keto-L-gulonate reductase (Vv2KGR) (enzyme, UniProt A5CAL1 1-313, looked up)
chain: MESIGVLLTCPMNPYLEQELDKRFKLFRFWDFPSANDLFREHSNSIRAVVGNSFIGADAQMIEALPKMEIVSSFSVGLDKIDLVRCKEKGIRVTNTPDVLTEDVADLALALILATLRRICESDRYVRSGSWKKGDFKLTTKFTGKSVGIIGLGRIGSAIAKRAEGFSCPISYHSRTEKPGTNYKYYPSVVELASNCQILVVACALTPETRHIINREVINALGPKGVVINIGRGLHVDEPELVSALVEGRLGGAGLDVFENEPNVPEELLAMDNVVLLPHVGSGTVETRKDMADLVLGNLEAHFLNKPLLTPVV
notes: Vv2KGR, Vitis vinifera cv; The forward primer carries an ATG of the NdeI site directly before the gene's own ATG; also called aldo-keto reductase; apo-Vv2KGR; source: E. coli BL21(DE3) pLysS-T1, pET14b, purified (HisTrap FF Crude, HiTrap Q HP, dialysis); not shown: His tag (from the vector pET14b)
Take B1: the Km in the data set “purified protein [1]” was determined as 0.044 mM; in “purified protein [2]” it was 0.096 mM; in the data set “purified protein [3]”, 0.700 mM; in “purified protein [4]”, 1.371 mM. Besides, the maximum rate (Vmax) in the data set “purified protein [1]” is 13.8 µmol/min/mg; in “purified protein [2]”, 6.29 µmol/min/mg; in the data set “purified protein [3]”, 7.54 µmol/min/mg. The kcat was 38.3 s⁻¹ in the data set “purified protein [1]”, 6.97 s⁻¹ in the data set “purified protein [2]” and 4.18 s⁻¹ in the data set “purified protein [3]”. Also, in data set [5], the “stoichiometry N” value was 2.
